Assay results reported in the supplement of paper PMC5998384.

Legend:
HeLa Kyoto [1] = test: solubility in G1/S (NP-40 vs SDS abundance) (log2 ratio); higher = more soluble; settings: cell cycle stage: G1/S
HeLa Kyoto [2] = test: solubility change mitosis vs G1/S (difference of NP-40 vs SDS log2 ratios) (log2 ratio difference); higher = more soluble in mitosis
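Wherever solubility change mitosis vs G1/S (difference of NP-40 vs SDS log2 ratios) is given: synchronized HeLa Kyoto cells (double thymidine block for G1/S, nocodazole release for mitosis), protein amounts in NP-40 versus SDS lysates quantified by mass spectrometry, three biological replicates.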
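Wherever solubility in G1/S (NP-40 vs SDS abundance) is given: HeLa Kyoto cells arrested at G1/S by double thymidine block, proteins quantified by TMT10plex mass spectrometry in mild NP-40 versus SDS extracts, three biological replicates.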

Sequence	solubility in G1/S (log2) (HeLa Kyoto [1])	solubility change mitosis (log2) (HeLa Kyoto [2])
MEELSSVGEQVFAAECILSKRLRKGKLEYLVKWRGWSSKHNSWEPEENILDPRLLLAFQKKEHEKEVQNRKRGKRPRGRPRKLTAMSSCSRRSKLKEPDAPSKSKSSSSSSSSTSSSSSSDEEDDSDLDAKRGPRGRETHPVPQKKAQILVAKPELKDPIRKKRGRKPLPPEQKATRRPVSLAKVLKTARKDLGAPASKLPPPLSAPVAGLAALKAHAKEACGGPSAMATPENLASLMKGMASSPGRGGISWQSSIVHYMNRMTQSQAQAASRLALKAQATNKCGLGLDLKVRTQKGELGMSPPGSKIPKAPSGGAVEQKVGNTGGPPHTHGASRVPAGCPGPQPAPTQELSLQVLDLQSVKNGMPGVGLLARHATATKGVPATNPAPGKGTGSGLIGASGATMPTDTSKSEKLASRAVAPPTPASKRDCVKGSATPSGQESRTAPGEARKAATLPEMSAGEESSSSDSDPDSASPPSTGQNPSVSVQTSQDWKPTRSLIEHVFVTDVTANLITVTVKESPTSVGFFNLRHY [CBX2]	-0.63	0.268
MEEPEEPADSGQSLVPVYIYSPEYVSMCDSLAKIPKRASMVHSLIEAYALHKQMRIVKPKVASMEEMATFHTDAYLQHLQKVSQEGDDDHPDSIEYGLGYDCPATEGIFDYAAAIGGATITAAQCLIDGMCKVAINWSGGWHHAKKDEASGFCYLNDAVLGILRLRRKFERILYVDLDLHHGDGVEDAFSFTSKVMTVSLHKFSPGFFPGTGDVSDVGLGKGRYYSVNVPIQDGIQDEKYYQICESVLKEVYQAFNPKAVVLQLGADTIAGDPMCSFNMTPVGIGKCLKYILQWQLATLILGGGGYNLANTARCWTYLTGVILGKTLSSEIPDHEFFTAYGPDYVLEITPSCRPDRNEPHRIQQILNYIKGNLKHVV [HDAC8]	0.168	-0.213
MEFSIKQSPLSVQSVVKCIKMKQAPEILGSANGKTPSCEVNRECSVFLSKAQLSSSLQEGVMQKFNGHDALPFIPADKLKDLTSRVFNGEPGAHDAKLRFESQEMKGIGTPPNTTPIKNGSPEIKLKITKTYMNGKPLFESSICGDSAADVSQSEENGQKPENKARRNRKRSIKYDSLLEQGLVEAALVSKISSPSDKKIPAKKESCPNTGRDKDHLLKYNVGDLVWSKVSGYPWWPCMVSADPLLHSYTKLKGQKKSARQYHVQFFGDAPERAWIFEKSLVAFEGEGQFEKLCQESAKQAPTKAEKIKLLKPISGKLRAQWEMGIVQAEEAASMSVEERKAKFTFLYVGDQLHLNPQVAKEAGIAAESLGEMAESSGVSEEAAENPKSVREECIPMKRRRRAKLCSSAETLESHPDIGKSTPQKTAEADPRRGVGSPPGRKKTTVSMPRSRKGDAASQFLVFCQKHRDEVVAEHPDASGEEIEELLRSQWSLLSEKQRARYNTKFALVAPVQAEEDSGNVNGKKRNHTKRIQDPTEDAEAEDTPRKRLRTDKHSLRKRDTITDKTARTSSYKAMEAASSLKSQAATKNLSDACKPLKKRNRASTAASSALGFSKSSSPSASLTENEVSDSPGDEPSESPYESADETQTEVSVSSKKSERGVTAKKEYVCQLCEKPGSLLLCEGPCCGAFHLACLGLSRRPEGRFTCSECASGIHSCFVCKESKTDVKRCVVTQCGKFYHEACVKKYPLTVFESRGFRCPLHSCVSCHASNPSNPRPSKGKMMRCVRCPVAYHSGDACLAAGCSVIASNSIICTAHFTARKGKRHHAHVNVSWCFVCSKGGSLLCCESCPAAFHPDCLNIEMPDGSWFCNDCRAGKKLHFQDIIWVKLGNYRWWPAEVCHPKNVPPNIQKMKHEIGEFPVFFFGSKDYYWTHQARVFPYMEGDRGSRYQGVRGIGRVFKNALQEAEARFREIKLQREARETQESERKPPPYKHIKVNKPYGKVQIYTADISEIPKCNCKPTDENPCGFDSECLNRMLMFECHPQVCPAGEFCQNQCFTKRQYPETKIIKTDGKGWGLVAKRDIRKGEFVNEYVGELIDEEECMARIKHAHENDITHFYMLTIDKDRIIDAGPKGNYSRFMNHSCQPNCETLKWTVNGDTRVGLFAVCDIPAGTELTFNYNLDCLGNEKTVCRCGASNCSGFLGDRPKTSTTLSSEEKGKKTKKKTRRRRAKGEGKRQSEDECFRCGDGGQLVLCDRKFCTKAYHLSCLGLGKRPFGKWECPWHHCDVCGKPSTSFCHLCPNSFCKEHQDGTAFSCTPDGRSYCCEHDLGAASVRSTKTEKPPPEPGKPKGKRRRRRGWRRVTEGK [WHSC1]	-1.29	0.535
MEGLGRSCLWLRRELSPPRPRLLLLDCRSRELYESARIGGALSVALPALLLRRLRRGSLSVRALLPGPPLQPPPPAPVLLYDQGGGRRRRGEAEAEAEEWEAESVLGTLLQKLREEGYLAYYLQGGFSRFQAECPHLCETSLAGRAGSSMAPVPGPVPVVGLGSLCLGSDCSDAESEADRDSMSCGLDSEGATPPPVGLRASFPVQILPNLYLGSARDSANLESLAKLGIRYILNVTPNLPNFFEKNGDFHYKQIPISDHWSQNLSRFFPEAIEFIDEALSQNCGVLVHCLAGVSRSVTVTVAYLMQKLHLSLNDAYDLVKRKKSNISPNFNFMGQLLDFERSLRLEERHSQEQGSGGQASAASNPPSFFTTPTSDGAFELAPT [DUSP9]	0.279	-0.104
MEGRSAAAETFVWVNNASAHSQSVAKAKYEFLFGRSEGKAPDTSDHGGSTLLPPNVTNEFPEYGTMEEGGEGLRASLEFDGEALPCHPQEQQGVQPLTGCHSGLDSVTEGPKDVREAPSQSHLKEQSLQPIDSLISALKATEARIISGTLQATKVLDQDAVSSFSVQQVEKELDTASRKTQRVNKTLPAGQKNLPEIPLSAEVTTEESFYLSIQKDLTALLTGDTQAEISQIMNNGRKGAVCVQEPSCPLASLGSSAVTCHSAGSVGFLKEQRSALGREHPGGCDRSSSMGRPGRVKHVEFQGVEILWTGGDKRETQHPIDFETSLQRTASPDSKESSKVPRHLISSAGLCNSSSLTENVWDESWKAPSERPGTSSGTFSPVRLDESGEDEVFLQENKQHLEKTPKPERDRERISEQEEHVKGEDEDILGPGYTEDSTDVYSSQFETILDNTSLYYSAESLETLYSEPDSYFSFEMPLTPMIQQRIKEGGQFLERTSGGGHQDILSVSADGGIVMGYSSGVTNGLNDASDSIYTKGTPEIAFWGSNAGVKTTRLEAHSEMGSTEILEKETPENLSNGTSSNVEAAKRLAKRLYQLDRFKRSDVAKHLGKNNEFSKLVAEEYLKFFDFTGMTLDQSLRYFFKAFSLVGETQERERVLIHFSNRYFYCNPDTIASQDGVHCLTCAIMLLNTDLHGHVNIGKKMTCQEFIANLQGVNEGVDFSKDLLKALYNSIKNEKLEWAVDDEEKKKSPSESTEEKANGTHPKTISRIGSTTNPFLDIPHDPNAAVYKSGFLARKIHADMDGKKTPRGKRGWKTFYAVLKGTVLYLQKDEYKPEKALSEEDLKNAVSVHHALASKATDYEKKPNVFKLKTADWRVLLFQTQSPEEMQGWINKINCVAAVFSAPPFPAAIGSQKKFSRPLLPATTTKLSQEEQLKSHESKLKQITTELAEHRSYPPDKKVKAKDVDEYKLKDHYLEFEKTRYEMYVSILKEGGKELLSNDESEAAGLKKSHSSPSLNPDTSPITAKVKRNVSERKDHRPETPSIKQKVT [PSD3]	-0.107	-0.00479
MEIAPQEAPPVPGADGDIEEAPAEAGSPSPASPPADGRLKAAAKRVTFPSDEDIVSGAVEPKDPWRHAQNVTVDEVIGAYKQACQKLNCRQIPKLLRQLQEFTDLGHRLDCLDLKGEKLDYKTCEALEEVFKRLQFKVVDLEQTNLDEDGASALFDMIEYYESATHLNISFNKHIGTRGWQAAAHMMRKTSCLQYLDARNTPLLDHSAPFVARALRIRSSLAVLHLENASLSGRPLMLLATALKMNMNLRELYLADNKLNGLQDSAQLGNLLKFNCSLQILDLRNNHVLDSGLAYICEGLKEQRKGLVTLVLWNNQLTHTGMAFLGMTLPHTQSLETLNLGHNPIGNEGVRHLKNGLISNRSVLRLGLASTKLTCEGAVAVAEFIAESPRLLRLDLRENEIKTGGLMALSLALKVNHSLLRLDLDREPKKEAVKSFIETQKALLAEIQNGCKRNLVLAREREEKEQPPQLSASMPETTATEPQPDDEPAAGVQNGAPSPAPSPDSDSDSDSDGEEEEEEEGERDETPCPALVPPTDSLGPGDRSPPGSPSTPTEQRISVSSPGRGHKVFVVTRVESPPERAEPPASPTPPSPPPPPSPPASPSLPPAGAIDTRDTGSSEPQPPPEPPRSGPPLPNGLKPEFALALPPEPPPGPEVKGGSCGLEHELSCSKNEKELEELLLEASQESGQETL [PPP1R37]	0.0581	-0.284
